Reference: patent US20200199217A1
Residue numbers refer to the chain shown, from its start.

T1: hu-IL-36β (human)
T1 sequence: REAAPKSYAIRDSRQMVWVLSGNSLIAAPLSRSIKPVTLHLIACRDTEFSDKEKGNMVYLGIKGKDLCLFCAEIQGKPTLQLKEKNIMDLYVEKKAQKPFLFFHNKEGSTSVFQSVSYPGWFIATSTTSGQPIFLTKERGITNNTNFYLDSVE

B1: mAb6.0 Fab (Fab, V domains shown)
VH: QLQLQESGPGLVKPSETLSLTCTVSGGSITSSNYYWGWIRQPPGKGLEWIGSIDYTGSTYYNPSLKSRVTISVDTSKNQFSLKLSSVTAADTAVYYCARGKYYETYLGFDVWGQGTLVTVSS
VL: QSVLTQPPSVSGAPGQRVTISCTGSSSNIGAGYDVHWYQQLPGTAPKLLIYGNTNRPSGVPDRFSGSKSGTSASLAITGLQAEDEADYYCQSYDISLSGWVFGGGTKLTVL
B2: mAb7.0 Fab (Fab, V domains shown)
VH: QVQLVESGGGVVQPGRSLRLSCAASGFTFSSYGMHWVRQAPGKGLEWVAVISYGGSERYYADSVKGRFTISRDNSKNTLYLQMNSLRAEDTAVYYCAREPWYSSRGWTGYGFDVWGQGTLVTVSS
VL: EIVLTQSPGTLSLSPGERATLSCRASQSVSSNYLAWYQQKPGQAPKLLIYSASSLQSGVPSRFSGSGSGTDFTLTISSLQPEDFATYYCQQTYSYPPTFGQGTKVEIK
B3: mAb8.0 Fab (Fab, V domains shown)
VH: QVQLVQSGAEVKKPGSSVKVSCKASGGTFSNYAISWVRQAPGQGLEWMGGILPILGTVDYAQKFQGRVTITADESTSTAYMELSSLRSEDTAVYYCAREPWYRLGAFDVWGQGTLVTVSS
VL: DIQMTQSPSSLSASVGDRVTITCRASQTIYKYLNWYQQKPGKAPKLLIYAASSLQSGVPSRFSGSGSGTDFTLTISSLQPEDFATYYCQQYSSIPYTFGQGTKVEIK
B4: mAb2.0 Fab (Fab, V domains shown)
VH: QLQLQESGPGLVKPSETLSLTCTVSGGSISTSSYYWGWIRQPPGKGLEWIGSIYYTGNTYYNPSLKSRVTISVDTSKNQFSLKLSSVTAADTAVYYCARVRYGVGVPRYFDPWGQGTLVTVSS
VL: B1 VL with G32H, T54D, I95Y, W100Y
B5: mAb3.0 Fab (Fab, V domains shown)
VH: B4 VH with T31S, S32T, Y54H, T56S, R101H, V104G, G105Y, V106I, Y109R, P112H
VL: B1 VL with I95Y, S98R, W100Y
B6: mAb4.0 Fab (Fab, V domains shown)
VH: QLQLQESGPGLVKPSETLSLTCTVSGGSIGSRSYYWGWIRQPPGKGLEWIGSIHYSGTTYYNPSLKSRVTISVDTSKNQFSLKLSSVTAADTAVYYCARVAPSYPRVFDYWGQGTLVTVSS
VL: B1 VL with T54R, I95Y, S98R, G99V, W100Y
B7: mAb5.0 Fab (Fab, V domains shown)
VH: EVQLLESGGGLVQPGGSLRLSCAASGFTFSTYAMSWVRQAPGKGLEWVSGISGGSGYTYYADSVKGRFTISRDNSKNTLYLQMNSLRAEDTAVYYCARVVTYRDPPASFDYWGQGTLVTVSS
VL: B1 VL with G32H, T54D, I95Y, S98K, G99A, W100Y
B8: mAb1.0 Fab (Fab, V domains shown)
VH: QVQLVESGGGVVQPGRSLRLSCAASGFSFSAYAMHWVRQAPGKGLEWVAVISYDGTNEYYADSVKGRFTISRDNSKNTLYLQMNSLRAEDTAVYYCARGIRIFTSYFDSWGQGTLVTVSS
VL: B1 VL with G32H, G52S, T54N, I95Y, S98R, W100Y

These binders were tested against hu-IL-36α (human) (UniProt Q9UHA7) (assay: ELISA, yeast Fab supernatant).
hu-IL-36α (human), sequence (Q9UHA7 6-158 limits assumed): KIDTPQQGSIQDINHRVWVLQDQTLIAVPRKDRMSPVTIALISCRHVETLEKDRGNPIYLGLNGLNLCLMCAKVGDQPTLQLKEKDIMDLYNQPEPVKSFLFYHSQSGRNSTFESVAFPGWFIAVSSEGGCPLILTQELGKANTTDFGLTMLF
B1 was tested, and the ELISA OD450 was 0.0638 OD450. Binder B2 has an ELISA OD450 of 0.0604 OD450. Work on B3 yielded an ELISA OD450 of 0.0698 OD450.

The binders below were run against hu-IL-36γ (human) (UniProt Q9NZH8) (assay: ELISA, yeast Fab supernatant).
hu-IL-36γ (human), sequence (Q9NZH8 18-169 limits assumed): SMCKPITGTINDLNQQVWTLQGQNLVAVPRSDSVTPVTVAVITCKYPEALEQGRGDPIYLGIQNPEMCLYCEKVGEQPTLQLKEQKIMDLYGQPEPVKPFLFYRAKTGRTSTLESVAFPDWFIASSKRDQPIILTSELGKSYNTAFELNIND
B1 showed an ELISA OD450 of 0.0656 OD450. Work on B2 yielded an ELISA OD450 of 0.0724 OD450. B3 was tested, and the ELISA OD450 was 0.073 OD450.

These binders were tested against T1, hu-IL-36β (human) (assay: ELISA, yeast Fab supernatant).
B4 gave an ELISA OD450 of 0.0604 OD450. Work on B5 yielded an ELISA OD450 of 0.11 OD450. For B6, the ELISA OD450 was 0.0513 OD450. For B7, the ELISA OD450 was 0.129 OD450. B8 was tested, and the ELISA OD450 was 0.0523 OD450.
